Experimental data: article PMC4409929 (Cell, 2015)
Read-outs that look alike come from different tables or passages of the source. Where no end group is shown, it is not given here. The star is where a group is joined. 5FAM = O=C1OC2(c3ccc(O)cc3Oc3cc(O)ccc32)c2ccc(C(=O)*)cc21

B1: TcEsxB, EsxB of Thermomonospora curvata (natural protein, UniProt D1A4H0 1-104, looked up)
chain: MAPQSAVDRAAMAQAAQDIEQSANAIRGMQNQLASAKDQLRSHWEGDASMAFEAVFNRFNEDFSRVLKALDGMHESLVQTRITYEAREEAAQQSVNRVQALLNG
B4: TcEccC(cyto,R543A) (domain or fragment, Thermomonospora curvata, UniProt D1A4G7 199-1315, looked up)
chain: VPDLPVAISLRSFARILPDGDPKAVYGMVRALIMQLAAFHSPDDVRITVCASRERMPQWQWMKWLPHSLHPTEYDAAGQVRLLTHSLVELESMLGPEIKDRGMFGASRAPAEPFHLVIVDGGQASYDSQIASDGIDGVCVIDLTGSVAETNEATMLRLRVTPERVYVVKRDRAGKEVLSSVGRPDQASIAEAEALARQLAPFRTSAADEPEEDVLSANMTLTSLLHIDNPYNLDPAVLWRPRPQRNRLRVPIGLDADGRPLELDIKESAQGGMGPHGLCIGATGSGKSELLRTLVLALAMTHSPEVLNFVLVDFKGGATFLGMEGLRHVSAIITNLEEELPLVDAMYDALHGEMVRRQEHLRHSGNYASLRDYEKARMEGAPLPPMPTLFIVLDEFSELLSAKPDFAELFVMIGRLGRSLGVHLLLASQRLEEGKLRGLDTHLSYRIGLRTFSAMESRVVLGVPDAYELPPSPGNGYLKFATEPLVRFKAAYVSGPVDEEPQTRSEGPQIVRQVLPYLTDYIRPQVVEQPQPEQRAEENKSSESLFDVVVRQLAGHGPEPHQIWLPPLDVPPTLDELLPPLSPSAAHGYTADGWEWRGRLHAVVGLVDRPFDQRRDPYWLDLSGGAGHVGVAGGPQTGKSTMLRTLITSLALLHTPQEVQFYCLDFGGGTLAGLAELPHVGSVATRLDADRIRRTVAEVSALLEQREQEFTERGIDSMATYRRLRATGEYAGDGFGDVFLVVDNWLTLRQDYEALEDSITQLAARGLGYGIHVVLSSNKWSEFRTSIRDLLGTKLELRLGDPYESEVDRKKAANVPENRPGRGLTRDGYHFLTALPRIDGDTSAETLTEGIATTVKTIREAWHGPTAPPVRMLPNVLPAAQLPSAAESGTRIPIGIDEDSLSPVYLDFNTDPHFLVFGDTECGKSNLLRLITAGIIERYTPQQARLIFIDYSRSLLDVATTEHQIGYAASSTAASSLVRDIKGAMEARLPPPDLTPEQLRSRSWWTGAELFLVVDDYEMVATSDNPLRPLAELLPQARDIGLHLIIARSMGGAGRALYEPIIQRIKEMASPGLVMSGNKDEGILLGNVKPHKLPQGRGYFVERRSGTRLIQTAYRES

Tests used:
[1] = biological target: GbEssCb (Geobacillus thermodenitrificans, UniProt A4IKE7); details: ATP bound in both ATPase domains
Chain of GbEssCb (A4IKE7 921-1479): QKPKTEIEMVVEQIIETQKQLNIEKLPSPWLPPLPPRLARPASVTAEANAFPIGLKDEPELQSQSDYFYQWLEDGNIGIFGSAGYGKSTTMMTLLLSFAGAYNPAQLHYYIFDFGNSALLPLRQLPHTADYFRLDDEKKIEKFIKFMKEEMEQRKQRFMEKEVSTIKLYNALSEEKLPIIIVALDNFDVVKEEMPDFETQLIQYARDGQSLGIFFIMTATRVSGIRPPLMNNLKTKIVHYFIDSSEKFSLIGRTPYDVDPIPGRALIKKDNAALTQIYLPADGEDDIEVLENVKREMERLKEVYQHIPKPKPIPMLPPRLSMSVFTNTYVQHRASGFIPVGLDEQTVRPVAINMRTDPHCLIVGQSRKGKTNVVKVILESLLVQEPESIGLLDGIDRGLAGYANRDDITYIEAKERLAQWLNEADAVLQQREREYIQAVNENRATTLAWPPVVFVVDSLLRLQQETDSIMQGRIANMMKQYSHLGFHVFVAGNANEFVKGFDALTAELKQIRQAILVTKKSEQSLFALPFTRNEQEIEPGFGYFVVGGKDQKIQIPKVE

[2] = biological target: B4; assay: cell-based or functional assay
[3] = biological target: the molecule itself
[4] = biological target: T1, TcEccC(cyto), cytoplasmic portion of EccC from Thermomonospora curvata (Thermomonospora curvata, UniProt D1A4G7 199-1315)
T1 sequence (looked up): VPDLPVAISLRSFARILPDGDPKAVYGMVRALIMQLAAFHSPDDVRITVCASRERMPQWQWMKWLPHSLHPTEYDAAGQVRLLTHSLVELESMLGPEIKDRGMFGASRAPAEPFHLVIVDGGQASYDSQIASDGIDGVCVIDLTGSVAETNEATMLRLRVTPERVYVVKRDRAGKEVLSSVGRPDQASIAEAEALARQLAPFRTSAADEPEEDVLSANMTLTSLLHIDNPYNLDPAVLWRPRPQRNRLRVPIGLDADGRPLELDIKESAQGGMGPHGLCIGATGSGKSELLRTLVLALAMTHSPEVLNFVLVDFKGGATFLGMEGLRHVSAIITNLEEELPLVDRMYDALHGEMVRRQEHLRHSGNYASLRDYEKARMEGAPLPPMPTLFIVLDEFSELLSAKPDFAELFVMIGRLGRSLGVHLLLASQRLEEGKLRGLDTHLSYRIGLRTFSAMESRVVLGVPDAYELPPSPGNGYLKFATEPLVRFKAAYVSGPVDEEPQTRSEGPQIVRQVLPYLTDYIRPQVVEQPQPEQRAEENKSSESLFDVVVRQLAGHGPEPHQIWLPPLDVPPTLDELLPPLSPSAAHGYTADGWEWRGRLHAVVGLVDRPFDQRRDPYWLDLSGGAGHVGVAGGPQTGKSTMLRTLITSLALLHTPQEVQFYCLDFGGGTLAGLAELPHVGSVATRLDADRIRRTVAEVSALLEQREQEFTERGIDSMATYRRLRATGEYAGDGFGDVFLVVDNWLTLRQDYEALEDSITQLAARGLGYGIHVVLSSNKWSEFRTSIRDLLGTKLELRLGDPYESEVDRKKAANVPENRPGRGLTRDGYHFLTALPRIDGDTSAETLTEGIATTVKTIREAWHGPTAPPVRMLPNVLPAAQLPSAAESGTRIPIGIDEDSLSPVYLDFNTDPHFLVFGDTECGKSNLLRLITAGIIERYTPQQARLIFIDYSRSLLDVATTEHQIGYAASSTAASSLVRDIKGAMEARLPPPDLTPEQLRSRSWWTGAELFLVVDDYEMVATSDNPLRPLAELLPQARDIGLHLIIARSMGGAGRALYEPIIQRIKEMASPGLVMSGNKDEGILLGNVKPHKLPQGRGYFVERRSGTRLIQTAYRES

[5] = biological target: T1, TcEccC(cyto), cytoplasmic portion of …; assay: fluorescence polarisation
[6] = biological target: T1, TcEccC(cyto), cytoplasmic portion of …; assay: fluorescence polarisation; remark: listed apart in the source
[7] = biological target: the molecule itself; assay: cross-linking
[8] = biological target: B1

Q: How did the X-ray crystal structure [1] turn out when `Nc1ncnc2c1ncn2[C@@H]1O[C@H](COP(=O)(O)OP(=O)(O)OP(=O)(O)O)[C@@H](O)[C@H]1O` [ATP] was run?
A: has a very similar structure, with both domains bound to ATP

Q: For B1, which “ATPase activity of TcEccC(cyto,R543A) with added TcEsxB (0-10 μM)” value [2] is on record?
A: 5 fold

Q: What about the “stoichiometry N” value [3] of the same molecule?
A: 2

Q: And the Kd [4]?
A: ~10 µM

B2: fluorescently labeled signal sequence peptide 5-FAM-VNRVQALLNG (peptide)
peptide: 5FAM-VNRVQALLNG
Q: Does B2 bind [5]?
A: binds

B3: TcEsxAB heterodimer (complex, Thermomonospora curvata)
chain 1: MSDYTRANFGGLSEGEAQFSMTARALLDELTDLEGKLRAKLDRWDGDAQAAYWNYQKEWDAAAKDMQNVVAQLGVAIREAHDNYQAAERANTSIWAG
chain 2: MAPQSAVDRAAMAQAAQDIEQSANAIRGMQNQLASAKDQLRSHWEGDASMAFEAVFNRFNEDFSRVLKALDGMHESLVQTRITYEAREEAAQQSVNRVQALLNG
Q: Does B3 bind [6]?
A: binds

Q: Does B4 bind [7]?
A: binds

B5: TcEsxA, EsxA of Thermomonospora curvata (natural protein, UniProt D1A4H1 1-97, looked up)
chain: MSDYTRANFGGLSEGEAQFSMTARALLDELTDLEGKLRAKLDRWDGDAQAAYWNYQKEWDAAAKDMQNVVAQLGVAIREAHDNYQAAERANTSIWAG
Q: Which “stoichiometry N” value [8] does the source give for B5 here?
A: 1
